Patent US20230348616A1 (MIE UNIVERSITY, published 2023)

Legend:
3A [1] = molecular target: T1, 3A; experiment: flow cytometry on peptide-pulsed T2 cells, scFv 100 nM
T1 construct: also called HLA-A2 / point-mutant NY-ESO peptide 3A complex on T2 cells
Method: (§1) The resultant was washed two times in the AIM-V medium containing 20% FBS, the concentration thereof was adjusted to an adequate level with PBS containing 5% FBS, the LIVE/DEAD Fixable Dead Cell Stain Kit (Thermo Fisher Scientific) was added thereto, and the resultant was allowed to stand at 4° C. for 30 minutes. The cells were washed 2 times in PBS containing 5% FBS, the washed cells were divided into two groups, the cells in PBS containing 5% FBS were seeded on a 96-well U-bottom microplate at 10⁵ cells/well, and the plate was subjected to centrifugation, followed by removal of the supernatant. Anti-HLA/NY-ESO scFv diluted to 100 nM with PBS containing 5% FBS was added at 25 μl/well to one of the divided cells, and the resultant was allowed to stand at 4° C. for 30 minutes. The cells were washed 2 times in PBS containing 5% FBS, Penta-His Alexa Fluor488 (QIAGEN) diluted in PBS containing 5% FBS was added at 25 μl/well, and the resultant was allowed to stand at 4° C. for 30 minutes. The cells were washed 2 times in PBS containing 5% FBS, Anti-mouse-IgG Alexa Fluor488 (Thermo Fisher Scientific) diluted in PBS containing 5% FBS was added at 25 μl/well, and the resultant was allowed to stand at 4° C. for 30 minutes. The cells were washed 2 times in PBS containing 5% FBS, immobilized with Mildform 10 N (FUJIFILM Wako Pure Chemical Corporation) overnight, and resuspended in PBS containing 5% FBS. […] The cells were washed 2 times in PBS containing 5% FBS, immobilized with Mildform 10 N (FUJIFILM Wako Pure Chemical Corporation) overnight, and resuspended in PBS containing 5% FBS. The cell suspensions were subjected to detection using a flow cytometer (CantoII, Becton Dickinson). […] The standardized gMFI indicating the binding affinity of each scFv standardized with the amount of the HLA/peptide complex on the T2 cells was determined in accordance with the following equation.

4A [2] = molecular target: T2, 4A; experiment: as above
T2 construct: also called HLA-A2 / point-mutant NY-ESO peptide 4A complex on T2 cells
Method: as §1

7F = molecular target: T3, 7F; experiment: as above
T3 construct: also called HLA-A2 / point-mutant NY-ESO peptide 7F complex on T2 cells
Method: as §1

2M [3] = molecular target: T4, 2M; experiment: as above
T4 construct: also called HLA-A2 / point-mutant NY-ESO peptide 2M complex on T2 cells
Method: as §1

6L [4] = molecular target: T5, 6L; experiment: as above
T5 construct: also called HLA-A2 / point-mutant NY-ESO peptide 6L complex on T2 cells
Method: as §1

8A = molecular target: T6, 8A; experiment: as above
T6 construct: also called HLA-A2 / point-mutant NY-ESO peptide 8A complex on T2 cells
Method: as §1

5A [5] = molecular target: T7, 5A; experiment: as above
T7 construct: also called HLA-A2 / point-mutant NY-ESO peptide 5A complex on T2 cells
Method: as §1

9A [6] = molecular target: T8, 9A; experiment: as above
T8 construct: also called HLA-A2 / point-mutant NY-ESO peptide 9A complex on T2 cells
Method: as §1

1F = molecular target: T9, 1F; experiment: as above
T9 construct: also called HLA-A2 / point-mutant NY-ESO peptide 1F complex on T2 cells
Method: as §1

9A [7] = molecular target: T10, 9A; experiment: flow cytometry, CD3e knockout T2 cells pulsed with 50 µM peptide, antibody at 100 nM, PE anti-human IgG; gMFI standardized to the HLA/peptide amount; DMSO-only cells 1.15
T10 construct: peptide added to CD3e knockout T2 cells at 50 µM; also called HLA-A2 / point-mutant NY-ESO peptide 9A complex on CD3e knockout T2 cells
Method: (§2) The cells were washed 2 times in PBS containing 5% FBS, PE conjugated F(ab′)2 Fragment Anti-Human IgG (Jackson Immuno Research Laboratories) diluted with PBS containing 5% FBS was added at 25 μl/well, and the resultant was allowed to stand at 4° C. for 30 minutes. The cells were washed 2 times in PBS containing 5% FBS, immobilized with Mildform 10 N (FUJIFILM Wako Pure Chemical Corporation) overnight, and resuspended in PBS containing 5% FBS. […] The cells were washed 2 times in PBS containing 5% FBS, immobilized with Mildform 10 N (FUJIFILM Wako Pure Chemical Corporation) overnight, and resuspended in PBS containing 5% FBS. The cell suspensions were subjected to detection using a flow cytometer (CantoII, Becton Dickinson). […] The standardized gMFI indicating the binding affinity of each Fc-conjugated anti-HLA-A2/NY-ESO-anti-CD3 bispecific molecule standardized with the amount of the HLA/peptide complex on the CD3e knockout T2 cells was determined in accordance with the following equation.

5A [8] = molecular target: T11, 5A; experiment: as above
T11 construct: also called HLA-A2 / point-mutant NY-ESO peptide 5A complex on CD3e knockout T2 cells
Method: as §2

4A [9] = molecular target: T12, 4A; experiment: as above
T12 construct: also called HLA-A2 / point-mutant NY-ESO peptide 4A complex on CD3e knockout T2 cells
Method: as §2

3A [10] = molecular target: T13, 3A; experiment: as above
T13 construct: also called HLA-A2 / point-mutant NY-ESO peptide 3A complex on CD3e knockout T2 cells
Method: as §2

2M [11] = molecular target: T14, 2M; experiment: as above
T14 construct: also called HLA-A2 / point-mutant NY-ESO peptide 2M complex on CD3e knockout T2 cells
Method: as §2

6L [12] = molecular target: T15, 6L; experiment: as above
T15 construct: also called HLA-A2 / point-mutant NY-ESO peptide 6L complex on CD3e knockout T2 cells
Method: as §2

[13] = molecular target: T16, HLA-A*0201/β2-microglobulin/NY-ESO peptide complex (human, biotinylated with E. coli biotin ligase at the added recognition sequence (biotinylated form used in the ELISA)); experiment: screening of NYA-0001 mutant phage libraries
T16 construct: also called HLA/NY-ESO; HLA-A2/NY-ESO

Binder	standardized gMFI (3A [1])	standardized gMFI (4A [2])	standardized gMFI (7F)	standardized gMFI (2M [3])	standardized gMFI (6L [4])	standardized gMFI (8A)	standardized gMFI (5A [5])	standardized gMFI (9A [6])	standardized gMFI (1F)	binding result [13]	further results
NYA-2061 (scFv, also called NYA-2061 tag adduct) scFv: GEVQLVESGGGLVQPGGSLRLSCAASGFSIRSYDIHWVRQAPGKGLEWVATISYDGSQKYYADSVKGRFTISRDESKNTLYLQMNSLRAEDTAVYHCARGSSGHYEAFDIWGQGTLVTVSSGGGGSGGGGSGGGGSQSVLTQPPSASGTPGQRVTISCSGSSSNIGNWYVSWYQQLPGTAPKLLIYDNNKRPSGVPDRFSGSKSGTSASLAISGLQSEDEADYYCGTWDSSLSAPWVFGGGTKLTVLGAAAGAGGDYKDDDDKGAAAHHHHHH	4.73	0.59	2.04	7.17	7.13	5.22	0.66	9.16	0.54		
NYC-0003 (scFv, not shown: small tags and cut ends, also called 3M4E5 scFv; NYC-0003 tag adduct) scFv: EVQLLESGGGLVQPGGSLRLSCAASGFTFSTYQMSWVRQAPGKGLEWVSGIVSSGGSTAYADSVKGRFTISRDNSKNTLYLQMNSLRAEDTAVYYCAGELLPYYGMDVWGQGTTVTVSSGGGGSGGGGSGGGGSQSELTQPRSVSGSPGQSVTISCTGTSRDVGGYNYVSWYQQHPGKAPKLIIHDVIERSSGVPDRFSGSKSGNTASLTISGLQAEDEADYYCWSFAGSYYVFGTGTDVTVL	4.34	0.76	3.99	3.73	4.14	3.42	0.69	4.77	3.28		
NYZ-1010 (bispecific antibody, human IgG1, lambda, L234A L235A) chain 1: not shown chain 2: not shown light: NFMLTQPSSVSGVPGQRVTISCTGNTGNIGSNYVNWYQQLPGTAPKLLIYRDDKRPSGVPDRFSGSKSGTSASLAITGFQAEDEADYYCQSYSSGFIFGGGTKLTVLGQPKAAPSVTLFPPSSEELQANKATLVCLISDFYPGAVTVAWKADSSPVKAGVETTTPSKQSNNKYAASSYLSLTPEQWKSHRSYSCQVTHEGSTVEKTVAPTECS											standardized gMFI (9A [7]): 51.9; standardized gMFI (5A [8]): 1.02; standardized gMFI (4A [9]): 1.05; standardized gMFI (3A [10]): 21.3; standardized gMFI (2M [11]): 39.5; standardized gMFI (6L [12]): 37.6
NYA-0060 (scFv, V domains shown, NYA-0001 mutant from a phage library) VH: EVQLVESGGGVVQPGRSLTPSCSASGFSIRSYDIHWVRLAPGKGLEWVATISYDGSQKYFADSVKGRFTIFRDESENMVYLQMSGLRVEDTAVYHCARGSSGHYEAFDIWGQGTMVTVSS VL: QSVLTQPPSVSAAPGQKVTISCSGSSSNIGNNYVSWYQQLPGTAPKLLIYDNNKRPSGIPDRFSGSKSGTSATLGITGLQTGDEADYYCGTWDSSLSAPWVFGGGTKVTVL										binds	
NYA-0068 (scFv, V domains shown, NYA-0001 mutant from a phage library) VH: EVQLVESGGGVVQPGRSLTPSCSASGFSIRSYDIHWVRQAPGKGLEWVATISYDGSQKYFADSVKGRFTIFRDESENMVYLQMSGLRVEDTAVYHCARGSSGHYEAFDIWGQGTMVTVSS VL: QSVLTQPPSVSAAPGQKVTISCSGSSSNIGNWYVSWYQQLPGTAPKLLIYDNNKRPSGIPDRFSGSKSGTSATLGITGLQTGDEADYYCGTWDSSLSAPWVFGGGTKVTVL										binds	
NYA-0082 (scFv, V domains shown, NYA-0001 mutant from a phage library) VH: EVQLVESGGGVVQPGRSLTPSCSASGFSIRSYDIHWVRQAPGKGLEWVATISYDGSQKYFADSVKGRFTIFRDESENMVYLQMSGLRVEDTAVYHCARGSSGHYEAFDIWGQGTMVTVSS VL: QSVLTQPPSVSAAPGQKVTISCSGSSSNIGNNYVSWYQRLPGTAPKLLIYDNNKRPSGIPDRFSGSKSGTSATLGITGLQTGDEADYYCGSWDSSLSAPWVFGGGTKVTVL										binds	
